# Reference: patent publication US20230072640A1 (VANDERBILT UNIVERSITY, published 2023)
# B1: human monoclonal antibody YFV-136 (antibody, V domains shown)
# VH: QVQLQESGPGLVKPSGTLSLTCAVSGGSISSSNWWSWVRQPPGKGLEWIGDIYHSGSTSYNPSLKSRVTISVDRSKNQFSLKLSSVTAADTAVYYCARAPLVNWYYFDYWGQGTLVTVSS
# VL: QSVLTQPPSVSAAPGQKVTISCSGSSSNIGNNYVSWYQQLPGTAPKLLIYDNNKGPSGIPDRFSGSKSGTSATLGITGLQTGDEADYYCGTWDTSLSAGRVFGGGTKLTVL
# Molecular target: E protein of YFV-17D virus (Yellow fever virus strain 17D, UniProt P03314 286-778)
# Sequence (P03314 286-778 limits assumed): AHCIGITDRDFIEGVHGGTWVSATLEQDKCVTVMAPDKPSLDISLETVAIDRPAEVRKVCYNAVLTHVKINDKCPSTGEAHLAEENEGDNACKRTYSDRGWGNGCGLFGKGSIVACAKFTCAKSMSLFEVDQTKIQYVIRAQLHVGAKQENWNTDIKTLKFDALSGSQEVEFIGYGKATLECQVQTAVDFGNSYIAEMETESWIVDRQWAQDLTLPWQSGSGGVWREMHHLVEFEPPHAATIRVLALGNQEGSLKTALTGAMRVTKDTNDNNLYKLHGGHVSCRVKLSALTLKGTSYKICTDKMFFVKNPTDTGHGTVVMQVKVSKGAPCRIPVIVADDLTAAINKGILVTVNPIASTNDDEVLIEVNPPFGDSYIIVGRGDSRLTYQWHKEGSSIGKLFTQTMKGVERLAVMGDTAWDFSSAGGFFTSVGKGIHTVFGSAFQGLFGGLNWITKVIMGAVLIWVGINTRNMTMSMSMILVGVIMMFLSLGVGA
# Assay: cell-based or functional assay
binder,measurement,value
B1,"IC50, focus reduction neutralization test (FRNT) of YFV-17D in Vero cells",< 10 ng/mL
